Three molecules from patent US20120316071A1 (published 2012) can be followed below.

For assay [1], the target named is T1, rHuman ErbB2/Fc Chimera, CF (R&D Systems Cat#1129-ER) (human, UniProt P04626 23-652).
T1 construct: Bought Fc chimera; also called human epidermal growth factor 2 receptor; Fc part of the bought chimera not given
Briefly: Multispot ECL (MSD) titration; antigen spotted on plate; Fab 1570 nM; blank spot 866.

The target of assay [2] is T2, rHuman Notch-1/Fc Chimera, CF (R&D Systems Cat#3647-TK) (human, UniProt P46531 19-526).
T2 construct: Bought reagent
Briefly: MSD multispot ECL, antigen spotted, Fab 595.8 nM; blank spot 285.

The target of assay [3] is T3, rHuman EGF R/Fc Chimera, CF (R&D Systems Cat#344-ER) (human, UniProt P00533 25-645).
T3 construct: Bought reagent; also called epidermal growth factor receptor
Described as above.

Assay [4] addresses T4, rHuman ErbB2/Fc Chimera, CF (R&D Systems Cat#1129-ER) (human, UniProt P04626 23-652).
T4 construct: Bought reagent; also called human epidermal growth factor 2 receptor
The assay is described as above.

In assay [5] the target is T5, rHuman Erythropoietin R/Fc Chimera, CF (R&D Systems Cat#963-ER) (human, UniProt P19235 25-250).
T5 construct: Bought reagent; also called EPO R/Fc; Epo R
T5 sequence (looked up): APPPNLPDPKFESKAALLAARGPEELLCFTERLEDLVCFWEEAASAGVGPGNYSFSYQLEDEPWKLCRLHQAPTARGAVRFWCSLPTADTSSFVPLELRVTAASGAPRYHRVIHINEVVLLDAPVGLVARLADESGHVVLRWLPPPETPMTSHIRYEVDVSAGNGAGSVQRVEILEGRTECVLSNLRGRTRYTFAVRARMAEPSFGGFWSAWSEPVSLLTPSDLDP
The assay is described as above.

Assay [6] deals with T6, rHuman IGF-1 sR, (IGF-1 sR), CF (R&D Systems Cat#391-GR) (human, UniProt P08069 31-932).
T6 construct: Bought soluble receptor; also called insulin-like growth factor-1 soluble receptor
The description is as above.

In assay [7] the target is T7, rHuman CD44/Fc Chimera, CF (R&D Systems Cat#3660-CD) (human, UniProt P16070 21-220).
T7 construct: Bought reagent
The assay is described as above.

The target of assay [8] is T8, rHuman HGF R/c-MET/Fc Chimera, CF (R&D Systems Cat#358-MT/CF) (human, UniProt P08581 25-932).
T8 construct: Bought reagent; also called HGF R/Fc; hepatocyte growth factor receptor
T8 sequence (P08581 25-932, change not shown): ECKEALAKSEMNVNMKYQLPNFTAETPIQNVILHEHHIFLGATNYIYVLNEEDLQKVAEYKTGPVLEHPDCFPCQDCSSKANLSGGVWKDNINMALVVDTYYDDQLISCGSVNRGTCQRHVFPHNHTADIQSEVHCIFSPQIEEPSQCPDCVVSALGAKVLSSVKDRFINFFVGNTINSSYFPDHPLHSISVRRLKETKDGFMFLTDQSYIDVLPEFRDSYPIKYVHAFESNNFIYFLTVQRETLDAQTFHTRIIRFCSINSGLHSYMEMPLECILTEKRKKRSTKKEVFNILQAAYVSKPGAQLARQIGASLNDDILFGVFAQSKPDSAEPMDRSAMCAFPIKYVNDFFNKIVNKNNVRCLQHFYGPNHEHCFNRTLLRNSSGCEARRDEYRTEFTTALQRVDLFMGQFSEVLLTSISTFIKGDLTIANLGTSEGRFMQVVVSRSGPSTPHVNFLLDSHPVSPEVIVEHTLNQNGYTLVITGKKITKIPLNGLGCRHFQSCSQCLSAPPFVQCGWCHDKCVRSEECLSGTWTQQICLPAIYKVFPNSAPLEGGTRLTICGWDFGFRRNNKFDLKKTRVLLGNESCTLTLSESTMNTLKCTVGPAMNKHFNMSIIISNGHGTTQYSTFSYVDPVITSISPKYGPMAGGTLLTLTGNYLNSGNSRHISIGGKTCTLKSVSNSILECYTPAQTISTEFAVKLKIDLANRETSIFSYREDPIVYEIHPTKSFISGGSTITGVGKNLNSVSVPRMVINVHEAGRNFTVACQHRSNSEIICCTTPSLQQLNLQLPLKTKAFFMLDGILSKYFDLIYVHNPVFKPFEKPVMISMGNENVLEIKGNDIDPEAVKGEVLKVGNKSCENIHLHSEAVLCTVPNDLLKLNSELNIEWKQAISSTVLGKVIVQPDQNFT
The description is as above.

The target in assay [9] is T9, Recombinant Human DLL4 (R&D Systems Cat#1506-D4/CF) (human, UniProt Q9NR61 27-524).
T9 construct: Bought recombinant protein; also called rHuman DLL4; delta-like protein 4
The description is as above.

Assay [10] deals with T2, rHuman Notch-1/Fc Chimera, CF (R&D …). Briefly: MSD multispot ECL, antigen spotted, Fab 0.1 nM; blank spot 201.
Assay [11] has as its target T3, rHuman EGF R/Fc Chimera, CF (R&D …). The assay is described as above.
Assay [12] deals with T4, rHuman ErbB2/Fc Chimera, CF (R&D …). Described as above.
Assay [13] deals with T6, rHuman IGF-1 sR, (IGF-1 sR), CF (R&D …). The description is as above.
The target in assay [14] is T7, rHuman CD44/Fc Chimera, CF (R&D Systems …). Described as above.
Assay [15] addresses T9, Recombinant Human DLL4 (R&D Systems …). The assay is described as above.
Assay [16] concerns the target T10, rHuman CD44/Fc Chimera, CF (R&D Systems Cat#3660-CD) (human, UniProt P16070 21-220).
T10 construct: Bought Fc chimera; Fc part of the bought chimera not given
Briefly: MSD Multispot ECL, antigen spotted on plate, Fab at 7.5 nM; blank spot 217.

Assay [17] concerns the target T11, rHuman Erythropoietin R/Fc Chimera, CF (R&D Systems Cat#963-ER) (human, UniProt P19235 25-250).
T11 construct: Bought Fc chimera; also called EPO R/Fc; Epo R; Fc part of the bought chimera not given
T11 sequence (looked up): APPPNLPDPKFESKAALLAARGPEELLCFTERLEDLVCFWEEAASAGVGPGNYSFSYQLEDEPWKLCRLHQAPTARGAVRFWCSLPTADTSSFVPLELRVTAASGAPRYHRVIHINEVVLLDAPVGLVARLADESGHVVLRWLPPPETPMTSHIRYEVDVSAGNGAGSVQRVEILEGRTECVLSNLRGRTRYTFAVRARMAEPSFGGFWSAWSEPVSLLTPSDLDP
The description is as above.

Assay [18] addresses T12, rHuman Notch-1/Fc Chimera, CF (R&D Systems Cat#3647-TK) (human, UniProt P46531 19-526).
T12 construct: Bought Fc chimera; Fc part of the bought chimera not given
The description is as above.

Assay [19] has as its target T13, Recombinant Human DLL4 (R&D Systems Cat#1506-D4/CF) (human, UniProt Q9NR61 27-524).
T13 construct: Bought recombinant protein; also called rHuman DLL4; delta-like protein 4
Described as above.

Assay [20] concerns the target T14, rHuman P-Cadherin/Fc Chimera, CF (R&D Systems Cat#861-PC) (human, UniProt P22223 108-654).
T14 construct: Bought Fc chimera; Fc part of the bought chimera not given
The assay is described as above.

B1: Fab VH1-46_IGHD3-10*01_IGHJ4*01 & O1_IGKJ1*01 (Fab, V domains shown)
VH: QVQLVQSGAEVKKPGASVKVSCKASGYTFTSYYMHWVRQAPGQGLEWMGIINPSGGSTSYAQKFQGRVTMTRDTSTSTVYMELSSLRSEDTAVYYCAREYYYGSGSYYNDYFDYWGQGTLVTVSS
VL: DIVMTQTPLSLPVTPGEPASISCRSSQSLLDSDDGNTYLDWYLQKPGQSPQLLIYTLSYRASGVPDRFSGSGSGTDFTLKISRVEAEDVGVYYCMQRIEFPSWTFGQGTKVEIKR
notes: Germline library Fab expressed in E. coli; VH was cloned into Plasmid A (CH1 constant region, His6 and Flag tags); The kappa VL was cloned into Plasmid C (kappa CL)
With B1, the ECL signal in assay [1] was 1260.

B2: Fab VH1-46_IGHD6-6*01_IGHJ1*01 & L6_IGKJ1*01 (Fab, V domains shown)
VH: QVQLVQSGAEVKKPGASVKVSCKASGYTFTSYYMHWVRQAPGQGLEWMGIINPSGGSTSYAQKFQGRVTMTRDTSTSTVYMELSSLRSEDTAVYYCAREEYSSSSAEYFQHWGQGTLVTVSS
VL: not shown
notes: Only variable domains are tied to the molecule; Tested as a Fab made in E. coli: heavy chain from Plasmid A (CH1 constant region, His6 and Flag tags), kappa light chain from Plasmid C (kappa CL); also called parent Hit Fab against DLL4; VH1-46_IGHD6-6*01_IGHJ1*01 & L6_IGKJ1*01 (parental)
Take B2: the ECL signal was determined as 306 ECL signal in [2]; 403 ECL signal in assay [3]; 321 ECL signal in assay [4]; 378 ECL signal in assay [5]; 335 ECL signal in assay [6]; 372 ECL signal in [7]. The ECL signal was 353 ECL signal in assay [8]; 17200 ECL signal in assay [9]; 378 ECL signal in [10]; 311 ECL signal in [11]; 306 ECL signal in assay [12]; 241 ECL signal in [13]. The ECL signal stood at 323 ECL signal in assay [14] and 317 ECL signal in assay [15].

B3: Fab VH6-1_IGHD3-3*01_IGHJ4*01 & V4-3_IGLJ4*01 (Fab, V domains shown)
VH: QVQLQQSGPGLVKPSQTLSLTCAISGDSVSSNSAAWNWIRQSPSRGLEWLGRTYYRSKWYNDYAVSVKSRITINPDTSKNQFSLQLNSVTPEDTAVYYCAREYYDFWSGYYTDYFDYWGQGTLVTVSS
VL: QPVLTQPTSLSASPGASARLTCTLRSGINLGSYRIFWYQQKPESPPRYLLSYYSDSSKHQGSGVPSRFSGSKDASSNAGILVISGLQSEDEADYYCMIWHSSASFVFGGGTQLIIL
notes: Tested as a purified germline Fab made in E. coli; The VH was cloned into plasmid A (CH1 constant region, His6 and Flag tags) and the lambda VL into plasmid E (lambda CL)
As for B3, the ECL signal in assay [16] was 444; in [17], 443; in [18], 392; in [19] it was 598; in assay [20] it was 352.
